# B1: Cell adhesion molecule CEACAM1 (Homo sapiens), P13688 (parent)
# chain: MGHLSAPLHRVRVPWQGLLLTASLLTFWNPPTTAQLTTESMPFNVAEGKEVLLLVHNLPQQLFGYSWYKGERVDGNRQIVGYAIGTQQATPGPANSGRETIYPNASLLIQNVTQNDTGFYTLQVIKSDLVNEEATGQFHVYPELPKPSISSNNSNPVEDKDAVAFTCEPETQDTTYLWWINNQSLPVSPRLQLSNGNRTLTLLSVTRNDTGPYECEIQNPVSANRSDPVTLNVTYGPDTPTISPSDTYYRPGANLSLSCYAASNPPAQYSWLINGTFQQSTQELFIPNITVNNSGSYTCHANNSVTGCNRTTVKTIIVTELSPVVAKPQIKASKTTVTGDKDSVNLTCSTNDTGISIRWFFKNQSLPSSERMKLSQGNTTLSINPVKREDAGTYWCEVFNPISKNQSDPIMLNVNYNALPQENGLSPGAIAGIVIGVVALVALIAVALACFLHFGKTGRASDQRDLTEHKPSVSNHTQDHSNDPPNKMNEVTYSTLNFEAQQPTQPTSASPSLTATEIIYSEVKKQ
# Variants of: B1
# Conditions: with havr2_human HAVCR2, Q8TDQ0
row,effect of a mutation on the interaction,Variant
1,decreasing interaction strength,Q123H
2,decreasing interaction strength,N76A

# Continued, variant first:
row,Variant,effect of a mutation on the interaction
1,G81A,disrupting interaction strength
2,Q78L,decreasing interaction strength
